Experimental findings from patent US11407819B2, “Compositions and use of a fibrinogen binding motif present in EFB and COA for therapeutics and vaccines against Staphylococcus aureus” (priority 2013, dated 2022) are described below.

The target in the assay is T1, rEfb-O binding to Fg (Homo sapiens, UniProt P02671+P02675+P02679).
T1 construct: full-length human Fibrinogen (diluted in PBS, Enzyme research); purchased Enzyme research; host or cells: Efb probe made in E. coli
T1 sequence (P02671 20-629 limits assumed): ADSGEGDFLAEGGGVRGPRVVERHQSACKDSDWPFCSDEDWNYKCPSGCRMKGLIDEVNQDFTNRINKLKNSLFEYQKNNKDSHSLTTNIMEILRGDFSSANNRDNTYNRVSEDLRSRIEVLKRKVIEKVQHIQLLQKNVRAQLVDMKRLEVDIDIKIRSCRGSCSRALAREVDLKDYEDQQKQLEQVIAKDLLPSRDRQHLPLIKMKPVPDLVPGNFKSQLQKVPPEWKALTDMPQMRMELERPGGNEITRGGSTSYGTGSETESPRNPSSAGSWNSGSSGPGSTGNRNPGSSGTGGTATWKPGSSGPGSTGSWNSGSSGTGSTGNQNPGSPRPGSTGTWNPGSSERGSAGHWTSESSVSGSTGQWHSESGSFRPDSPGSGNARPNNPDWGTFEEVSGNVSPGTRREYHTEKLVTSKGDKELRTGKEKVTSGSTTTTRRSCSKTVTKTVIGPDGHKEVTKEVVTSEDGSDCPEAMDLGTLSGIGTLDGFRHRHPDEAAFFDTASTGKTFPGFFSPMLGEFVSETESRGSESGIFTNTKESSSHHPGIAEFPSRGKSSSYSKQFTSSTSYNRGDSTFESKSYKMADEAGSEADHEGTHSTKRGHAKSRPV
T1 sequence (P02675 31-491): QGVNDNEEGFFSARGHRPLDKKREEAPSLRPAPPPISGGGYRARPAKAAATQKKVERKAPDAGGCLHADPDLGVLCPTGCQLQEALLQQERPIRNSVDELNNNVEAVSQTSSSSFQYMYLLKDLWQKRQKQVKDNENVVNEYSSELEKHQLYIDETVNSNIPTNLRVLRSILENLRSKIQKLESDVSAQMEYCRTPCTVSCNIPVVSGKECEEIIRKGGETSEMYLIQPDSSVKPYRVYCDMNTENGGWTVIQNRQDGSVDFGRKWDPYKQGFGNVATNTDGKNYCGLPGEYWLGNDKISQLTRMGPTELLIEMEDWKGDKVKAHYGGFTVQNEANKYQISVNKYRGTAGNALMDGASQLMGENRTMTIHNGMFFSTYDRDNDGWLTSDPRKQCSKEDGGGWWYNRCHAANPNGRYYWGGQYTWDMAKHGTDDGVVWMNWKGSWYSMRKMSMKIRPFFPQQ
T1 sequence (P02679 27-453): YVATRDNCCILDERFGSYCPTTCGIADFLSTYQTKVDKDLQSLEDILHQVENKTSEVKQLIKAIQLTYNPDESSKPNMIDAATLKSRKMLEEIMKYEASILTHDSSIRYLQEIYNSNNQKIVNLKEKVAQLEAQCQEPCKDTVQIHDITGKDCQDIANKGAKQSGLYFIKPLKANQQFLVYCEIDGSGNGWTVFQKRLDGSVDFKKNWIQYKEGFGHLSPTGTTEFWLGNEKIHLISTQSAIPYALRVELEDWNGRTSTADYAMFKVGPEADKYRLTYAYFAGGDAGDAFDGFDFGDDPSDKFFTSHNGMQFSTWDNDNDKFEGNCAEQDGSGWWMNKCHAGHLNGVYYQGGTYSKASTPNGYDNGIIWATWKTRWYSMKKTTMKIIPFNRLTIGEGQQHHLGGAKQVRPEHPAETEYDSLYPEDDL
As to the kind of experiment: Competition ELISA, peptide inhibition of rEfb-O binding to immobilized Fg. The following applies: rEfb-O 5 nM; peptides 2 μM or increasing concentrations. On the procedure:
FIG. 10A is a table of the Efb-O variant peptides were synthesized where each residue in the sequence is individually replaced with Ala (or Ser when the native a.a. is Ala). FIG. 10B is a plot of the Efb-O variant peptides inhibit rEfb-O (5 nM) binding to immobilized Fg in solid phase assay. Wells were coated with 0.25 μg/well Fg. Peptides (2 μM) were mixed with rEfb-O proteins (5 nM) and incubated in the Fg wells for 1 hour. FIG. 10C is a plot showing selected peptides inhibit rEfb-O binding to immobilized Fg. Increasing concentrations of Efb peptides were incubated with 5 nM rEfb-O in Fg-coated microtiter wells. To identify the residues in Efb-O that are important for Fg binding an Alanine scanning approach was used. A panel of Efb-O variant peptides were synthesized where each residue in the sequence is individually replaced with Ala (or Ser when the native a.a. is Ala; FIG. 10A). The individual peptides are then examined for their ability to compete with the binding of rEfb-O (5 nM) to immobilized Fg. […]
In the case of peptide inhibition assay, various concentration of Efb or Coa peptides were mixed with a fixed concentration of Coa-GST or Efb-GST fusion proteins (5-10 nM) in TBS and the bound GST fusion proteins were detected through incubation with HRP-conjugated rabbit anti-GST polyclonal antibodies (5000× dilution). […]
A general note: In an ELISA, binding on a coated surface is turned into a signal by an enzyme label.

For the substance “sEfb-O: synthetic peptide mimicking the high affinity Fg-binding motif in Efb (Efb 68-98) (KYIKFKHDYNILEFNDGTFEYGARPQFN)”, the “inhibition of rEfb-O binding to immobilized Fg” value was “efficiently blocked”.
